In publication doi:10.1101/537159 (bioRxiv, 2019):

Legend:
[1] = biological target: D382Y human β-cardiac myosin 2-hep HMM (human, UniProt P12883 1-855; P08590 1-195; P10916 1-166, D382Y); test: MST
[2] = biological target: R719W human β-cardiac myosin 2-hep HMM (human, UniProt P12883 1-855; P08590 1-195; P10916 1-166, R719W); test: MST
R719W human β-cardiac myosin 2-hep HMM, sequence (P12883 1-855 R719W, chain 1 of 3): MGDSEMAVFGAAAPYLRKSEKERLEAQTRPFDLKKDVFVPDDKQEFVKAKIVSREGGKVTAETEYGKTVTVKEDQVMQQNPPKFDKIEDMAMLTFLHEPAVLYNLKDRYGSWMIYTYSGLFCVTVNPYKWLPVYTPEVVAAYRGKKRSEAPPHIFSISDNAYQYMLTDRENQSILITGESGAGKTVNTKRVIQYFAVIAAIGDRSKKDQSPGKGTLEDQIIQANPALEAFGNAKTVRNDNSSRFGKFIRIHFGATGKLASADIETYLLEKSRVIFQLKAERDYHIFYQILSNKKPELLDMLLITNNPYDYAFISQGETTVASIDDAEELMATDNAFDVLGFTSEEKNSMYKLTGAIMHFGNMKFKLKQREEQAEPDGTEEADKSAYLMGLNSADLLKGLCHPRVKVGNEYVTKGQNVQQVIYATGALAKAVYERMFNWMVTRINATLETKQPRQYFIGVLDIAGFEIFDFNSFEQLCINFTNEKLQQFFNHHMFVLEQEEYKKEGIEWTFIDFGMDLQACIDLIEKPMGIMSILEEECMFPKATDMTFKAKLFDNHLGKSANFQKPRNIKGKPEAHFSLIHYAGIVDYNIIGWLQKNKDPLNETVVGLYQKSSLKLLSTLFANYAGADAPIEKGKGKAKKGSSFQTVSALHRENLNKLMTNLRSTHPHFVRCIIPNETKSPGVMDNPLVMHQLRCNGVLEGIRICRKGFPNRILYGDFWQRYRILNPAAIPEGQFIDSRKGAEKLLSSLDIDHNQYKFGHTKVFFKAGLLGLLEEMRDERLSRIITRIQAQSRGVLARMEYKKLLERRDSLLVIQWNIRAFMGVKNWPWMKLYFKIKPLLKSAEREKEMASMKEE
R719W human β-cardiac myosin 2-hep HMM, sequence (P08590 whole entry, chain 2 of 3): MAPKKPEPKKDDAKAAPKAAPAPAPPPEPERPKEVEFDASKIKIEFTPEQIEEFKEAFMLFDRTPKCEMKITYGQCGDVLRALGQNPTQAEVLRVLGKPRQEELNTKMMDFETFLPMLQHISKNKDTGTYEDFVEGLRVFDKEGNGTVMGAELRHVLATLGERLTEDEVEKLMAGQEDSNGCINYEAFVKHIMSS
R719W human β-cardiac myosin 2-hep HMM, sequence (P10916 whole entry, chain 3 of 3): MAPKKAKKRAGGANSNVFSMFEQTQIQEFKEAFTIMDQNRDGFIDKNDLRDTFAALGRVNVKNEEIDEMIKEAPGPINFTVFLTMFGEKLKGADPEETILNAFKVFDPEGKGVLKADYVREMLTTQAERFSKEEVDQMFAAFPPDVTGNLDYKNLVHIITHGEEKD

D382Y human β-cardiac myosin 2-hep HMM, sequence (P12883 1-855 D382Y, chain 1 of 3): as the sequence (P12883 1-855 R719W, chain 1 of 3) above, with D382Y, W719R counted along it
D382Y human β-cardiac myosin 2-hep HMM, sequence (P08590 whole entry, chain 2 of 3): as the sequence (P08590 whole entry, chain 2 of 3) above
D382Y human β-cardiac myosin 2-hep HMM, sequence (P10916 whole entry, chain 3 of 3): as the sequence (P10916 whole entry, chain 3 of 3) above

B1: proximal S2 (amino acids 839-968) (domain or fragment, human, UniProt P12883 839-968, looked up)
chain: LLKSAEREKEMASMKEEFTRLKEALEKSEARRKELEEKMVSLLQEKNDLQLQVQAEQDNLADAEERCDQLIKNKIQLEAKVKEMNERLEDEEEMNAELTAKKRKLEDECSELKRDIDDLELTLAKVEKEK
[1]
  fold change of affinity against WT 2-hep HMM: < 2 fold
[2]
  fold change of affinity against WT 2-hep HMM: < 2 fold
